Results from patent US20240262900A1, “MATERIALS AND METHODS FOR DIFFERENTIATING CREB REGULATEDTRANSCRIPTION COACTIVATOR 3” (JANSSEN BIOTECH, INC., priority 2021, published 2024).
Positions count from the first letter of the chain named. Blank lines part the entries; values can stand above or below the molecule they belong to.

Legend:
[1] = molecular target: T1, CRTC3 phosphorylated at serine 370 (pSer370) (Homo sapiens, UniProt Q6UUV7); assay: Immunoblotting of in vitro phosphorylated recombinant CRTC3 wild type vs S370A mutant protein; format: binding; details: for specific recognition of human CRTC3 by phosphorylation state (conclusion of the experiments): serine 370
T1 construct: All recombinant CRTC3 full-length protein versions are preceded with; FLAG (N); AVI (N); made in house; host or cells: Baculovirus expression system
T1 sequence (Q6UUV7 1-619): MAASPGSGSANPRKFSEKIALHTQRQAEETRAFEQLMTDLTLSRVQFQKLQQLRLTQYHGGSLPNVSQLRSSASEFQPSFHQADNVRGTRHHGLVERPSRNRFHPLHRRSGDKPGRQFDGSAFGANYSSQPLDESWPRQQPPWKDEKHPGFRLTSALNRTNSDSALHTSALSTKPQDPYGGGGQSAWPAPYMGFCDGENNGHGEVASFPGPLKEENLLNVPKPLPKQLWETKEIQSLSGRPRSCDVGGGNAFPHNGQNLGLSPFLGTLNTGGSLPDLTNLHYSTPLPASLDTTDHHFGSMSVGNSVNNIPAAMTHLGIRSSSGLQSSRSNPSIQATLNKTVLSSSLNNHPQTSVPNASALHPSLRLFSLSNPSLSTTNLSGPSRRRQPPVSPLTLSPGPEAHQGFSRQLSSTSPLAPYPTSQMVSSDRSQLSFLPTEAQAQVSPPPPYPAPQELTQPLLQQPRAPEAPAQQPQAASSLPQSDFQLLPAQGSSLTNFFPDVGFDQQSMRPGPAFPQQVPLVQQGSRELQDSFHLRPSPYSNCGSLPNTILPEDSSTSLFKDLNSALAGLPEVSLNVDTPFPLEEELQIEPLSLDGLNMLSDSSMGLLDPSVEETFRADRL
From the text: (§1) To facilitate the identification of hybridomas that produced antibodies specific for the phosphorylated immunizing peptides, CRTC3 proteins were designed that harbored serine to alanine mutations at either position 329 (S329A mutant) or 370 (S370A mutant; Table 3) rendering them unable to carry phosphate groups at positions 329 and 370, respectively. In addition, CRTC3 protein harboring the unmutated wild type (WT) amino acid sequence was produced as a control reagent (Table 3). Briefly, proteins were overexpressed in a Baculovirus expression system and purified using M2 anti-flag magnetic beads (Millipore-Sigma). The wild type protein was additionally subjected to subsequent size exclusion chromatography. All purified proteins were phosphorylated in vitro in the presence of internally produced SIK2 variant (6His-MBP-TEV-SIK2-PKD-UBA; SEQ ID NO: 187) and 1 mM ATP (Promega) in a buffer containing 50 mM Tris pH 7.5, 100 mM NaCl, 10 mM MgCl2 (all from Quality Biologicals), 0.1 mM EDTA (Corning), 1 mM DTT (MP Biomedicals). Phosphorylation reactions were quenched by the addition of excess EDTA.
(§2) Immunoblotting was done using the NuPAGE electrophoresis and western Blotting system (Invitrogen). Briefly, 0.1-0.15 microgram of WT or S329A mutant or S370A mutant recombinant protein along with WesternSure® Pre-stained Chemiluminescent Protein Ladder (Li-Cor) were loaded onto NuPAGE® Bis-Tris gels and separated by electrophoresis. Subsequently, proteins were transferred onto nitrocellulose membranes (iBlot® 2 Transfer Stacks, nitrocellulose, mini; ThermoFisher) using an iBlot 2® Gel Transfer Device (ThermoFisher). Specific bands on the nitrocellulose membranes were detected using the automatic Western blot-processing iBind™ Flex Western System (ThermoFisher) as per the manufacturer's recommendations. As primary antibodies served either undiluted hybridoma supernatant or recombinantly expressed mAbs at 0.25 microgram/ml, whereas Peroxidase AffiniPure Donkey Anti-Rabbit IgG (H+L) (Jackson ImmunoResearch) was used as secondary antibody at a 1:4000 dilution. The blots were developed using Amersham ECL Western Blotting Detection Reagent and an ImageQuant LAS4000 image scanner (both GE Healthcare Life Sciences).

[2] = tested on: phosphorylated CRTC3 in THP1 lysates; assay: Immunoblotting of lysates of macrophage-differentiated, LPS-stimulated THP1 cells, untreated or incubated with dasatinib; format: binding, human; details: recombinant mAb
From the text: as §2
Cells were then either left untreated or incubated with dasatinib at 10 micromolar for 1.5 hours before cell harvest. […] Cells were washed in cold PBS (Gibco) and lysed on ice in 50 mM Tris HCl (Alfa Aesar) at pH 7.4, 1 mM DTT, 1% (vol/vol) Triton X-100 (both ThermoFisher), 1 mM EDTA (Gibco), 1 mM EGTA (Alfa Aesar) supplemented with protease inhibitor (cOmplete™ ULTRA Tablets; Roche) and phosphatase inhibitor (Phosstop, Roche) as per the manufacturer's recommendations for 1 hour. Extracted proteins were harvested by collecting the supernatant after centrifugation of the lysate for 20 minutes. Protein concentrations were determined using the Pierce Detergent-compatible Bradford Assay kit (Pierce). Lysate proteins were separated by gel electrophoresis and detected by immunoblotting as described above. […] That the detected signals indeed corresponded to CRTC3 was verified in independent experiments, in which similarly treated THP1 lysates were developed using an antibody recognizing CRTC3 independent of its phosphorylation status (EPR3440; purified; rabbit; Abcam; data not shown).

[3] = molecular target: T2, CRTC3 phosphorylated at serine 329 (pSer329) (Homo sapiens, UniProt Q6UUV7); assay: Immunoblotting of in vitro phosphorylated recombinant CRTC3 wild type vs S329A mutant protein; format: binding; details: for specific detection of human CRTC3 by phosphorylation state (conclusion of the experiments): serine 329
T2 construct: All recombinant CRTC3 full-length protein versions are preceded with; FLAG (N); AVI (N); made in house; host or cells: Baculovirus expression system
T2 sequence (Q6UUV7 1-619): T1 sequence (Q6UUV7 1-619)
From the text: as §1, §2

[4] = recombinant mAb at 0.25 microgram/ml, FIG. 2D
[5] = undiluted hybridoma supernatant as primary antibody, FIG. 2B
[6] = THP1 lysates not incubated with a SIK inhibitor (lane 3)
[7] = THP1 lysates treated for 1.5 hours with dasatinib at 10 micromolar (lane 4)
[8] = recombinantly expressed mAb at 0.25 microgram/ml, FIG. 2C
[9] = undiluted hybridoma tissue culture supernatant as primary antibody, FIG. 2A

B2: mAb #21: anti-phospho-Serine329 CRTC3 monoclonal antibody from rabbit hybridoma; VH SEQ ID NO: 99, VL SEQ ID NO: 100 (antibody, V domains shown)
VH: QSVEESGGRLVTPGTPLTLTCTVSGIDLSSNTVSWVRQAPGKGLEWIGVSGYSGRPYYASWAKGRFTISKTSSTVHLKITSPTAEDTATYFCARGSVNVNIWGPGTLVTVSS
VL: AQVLTQTASPVSAAVGGTVTINCQSSQSVYSSNRLSWFQQKPGQPPKLLMYYTSTLASGVPSRFKGSGSGTEFTLTISGVQCDDAATYYCLGGYDCDIADCSAFGGGTEVVVK
- recognition of recombinant CRTC3 WT vs S329A variant by western blot [3, 8]: specifically recognized only recombinant CRTC3 protein harboring the WT sequence
- specific detection of human CRTC3 by phosphorylation state (conclusion of the experiments) [3]: specifically detected human CRTC3 only when phosphorylated at serine 329
- recognition of recombinant CRTC3 WT vs S329A variant by western blot [3, 9]: specifically recognized only recombinant CRTC3 protein harboring the WT sequence
- immunoblot signal at the expected molecular size in THP1 lysates [2, 6]: strong signal
- immunoblot signal at the expected molecular size in THP1 lysates [2, 7]: strongly diminished

B3: mAb #82: anti-phospho-Serine329 CRTC3 monoclonal antibody from rabbit hybridoma; VH SEQ ID NO: 133, VL SEQ ID NO: 134 (antibody, V domains shown)
VH: B2 VH with S50I, R55N, P56G, S73T, H76D, I79M, V99C
VL: B2 VL with Y30I, S32N, F38L, M50I, T53A, E72Q, D97N, I98S, A103T
- recognition of recombinant CRTC3 WT vs S329A variant by western blot [3, 8]: specifically recognized only recombinant CRTC3 protein harboring the WT sequence
- specific detection of human CRTC3 by phosphorylation state (conclusion of the experiments) [3]: specifically detected human CRTC3 only when phosphorylated at serine 329
- recognition of recombinant CRTC3 WT vs S329A variant by western blot [3, 9]: specifically recognized only recombinant CRTC3 protein harboring the WT sequence
- immunoblot signal at the expected molecular size in THP1 lysates [2, 6]: strong signal
- immunoblot signal at the expected molecular size in THP1 lysates [2, 7]: strongly diminished

More lines, main results first:

- signal with recombinant CRTC3 WT vs S370A mutant by western blot [1, 4]: specific signal only with WT
- signal with recombinant CRTC3 WT vs S370A mutant by western blot [1, 5]: specific signal only with WT
B1: mAb #157: anti-phospho-Serine370 CRTC3 monoclonal antibody from rabbit hybridoma; VH SEQ ID NO: 31, VL SEQ ID NO: 32 (antibody, V domains shown)
VH: QEQLKESGGGLFKPMDILTVTCTVSGISLSSYGLSWVRQAPGNGLEWIGAIGASGSAYYASWAKSRSTITRNTNLNTVTLKMTSLTAADTATYFCKRNYIWGPGTLVTVSS
VL: AQVLTQTASPVSAAVGGTVTINCQASQSVYSDNRLSWYQQKPGQPPKLLIYEASKLASGVPPRFSGSGSGTQFTLAISGVQCDDAATYYCQGSYDCNSADCSAFGGGTEVVVK
- specific recognition of human CRTC3 by phosphorylation state (conclusion of the experiments) [1]: specifically recognized human CRTC3 only when phosphorylated at serine 370
- immunoblot signal at the expected molecular size in THP1 lysates [2, 6]: strong signal
- immunoblot signal at the expected molecular size in THP1 lysates [2, 7]: strongly diminished

- signal with recombinant CRTC3 WT vs S370A mutant by western blot [1, 4]: specific signal only with WT
- signal with recombinant CRTC3 WT vs S370A mutant by western blot [1, 5]: specific signal only with WT
B4: mAb #170: anti-phospho-Serine370 CRTC3 monoclonal antibody from rabbit hybridoma; VH SEQ ID NO: 65, VL SEQ ID NO: 66 (antibody, V domains shown)
VH: QSMKESEGGLFKPTDTLTLTCTVSGFSLSRYGVIWVRQAPGKGLEFIGYISSTGSTYYASWAKSRSTITRNTNENTVTLKVTSLTAADTATYFCAQSGLGYDGGRNIWGPGTLVTVSS
VL: AAVLTQTPSPVSAAVGGTVSISCQSSKSVANSNWLSWYQQKPGQPPKLLIYSASTLASGAPSRFKGSGSGTQFTLTISDVQCDDAATYYCAGGYSDISDIFGFGGGTEVVVK
- specific recognition of human CRTC3 by phosphorylation state (conclusion of the experiments) [1]: specifically recognized human CRTC3 only when phosphorylated at serine 370
- immunoblot signal at the expected molecular size in THP1 lysates [2, 6]: strong signal
- immunoblot signal at the expected molecular size in THP1 lysates [2, 7]: strongly diminished
